Experimental data as given in US20100172900A1 (Bristol-Myers Squibb, published 2010).

T1: ICOS-Ig (human, UniProt Q9Y6W8)
T1 construct: extracellular domain
T1 sequence (fusion chain, looked up): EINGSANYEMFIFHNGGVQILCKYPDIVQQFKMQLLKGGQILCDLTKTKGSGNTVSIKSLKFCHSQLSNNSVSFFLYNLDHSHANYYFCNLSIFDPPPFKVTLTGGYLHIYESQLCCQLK


Columns and labels:
[1] = molecular target: T2, recombinant human BTLA fusion protein (human, UniProt Q7Z6A9 31-156); test: Biacore 3000, antibody captured by anti-CH1, BTLA fusion protein 200 nM in solution
T2 construct: also called BTLA-Ig; BTLA Ig antigen; not shown: Ig fusion partner
T2 sequence (Q7Z6A9 other isoform, or with tags, fused parts or gaps): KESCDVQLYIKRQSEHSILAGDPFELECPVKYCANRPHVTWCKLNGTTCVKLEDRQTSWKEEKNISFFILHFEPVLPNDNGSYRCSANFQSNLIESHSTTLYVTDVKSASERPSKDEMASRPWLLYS
Experimental: The binding of the 1B4, E4H9, 3C2, 6A5, 11E2 and 10116 antibodies to recombinant BTLA protein was examined by BIAcore™ using an antibody capture method. Each of the six anti-BTLA monoclonal antibodies were captured using anti-CH1, a reagent antibody that is specific towards the heavy chain constant region 1 of human antibody (Zymed, Clone HP6045, Stock conc. 1.0 mg/mL). Anti-CH1 was coated on a CM5 chip (BR-1000-14, Research Grade) at high density (6200-7960 RUs). The coating was carried out based on the standard immobilization procedure recommended by the manufacturer. The 1B4, E4H9, 3C2, 6A5, 11E2 and 10116 purified antibodies, with concentrations ranging from 1-10 μg/mL, were each then captured on the anti-CH1 coated chip surface at a flow-rate of 10 μl/min for 0.5-1 minute. A single concentration of recombinant human BTLA fusion protein (200 nM) was injected over captured antibody for 4 minutes at a flow rate of […]. The antigen was allowed to dissociate for 10 minutes. The chip surface was regenerated after each cycle with 10 μL of 30 mM NaOH, followed by 30 μl of HBS EP wash. Isotype controls were run on the chip, and the data used to subtract non-specific binding. All the experiments were carried out on a Biacore 3000 surface plasmon resonance instrument, using BIAcore Control software v 3.2. Data analysis was carried out using BiaEvaluation v3.2 software.

[2] = molecular target: T3, recombinant human BTLA expressed at the cell surface of CHO cells (human, UniProt Q7Z6A9 31-289); test: flow cytometry on BTLA-transfected CHO cells, PE anti-human IgG detection, MFI against log nM IgG
T3 construct: also called BTLA-CHO cells; BTLA CHO cells
T3 sequence (Q7Z6A9 31-289 R157S limits assumed): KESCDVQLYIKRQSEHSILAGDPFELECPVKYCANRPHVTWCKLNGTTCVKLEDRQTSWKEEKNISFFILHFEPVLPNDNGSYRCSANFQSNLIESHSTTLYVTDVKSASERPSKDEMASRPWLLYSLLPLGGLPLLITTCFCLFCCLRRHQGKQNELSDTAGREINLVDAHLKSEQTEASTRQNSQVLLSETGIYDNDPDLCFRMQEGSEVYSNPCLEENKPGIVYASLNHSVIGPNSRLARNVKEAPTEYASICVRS
Experimental: Chinese hamster ovary (CHO) cell lines that express recombinant human BTLA at the cell surface were developed and used to determine the specificity of BTLA human monoclonal antibodies by flow cytometry. CHO cells were transfected with expression plasmids containing full length cDNA encoding transmembrane forms of BTLA. Binding of the anti-BTLA human monoclonal antibodies was assessed by incubating the transfected cells with the anti-BTLA human monoclonal antibodies at a concentration from 0.01 nM to 66 nM. The antibodies were incubated with 10⁵ BTLA CHO cells for 60 minutes at 4° C. in PBS1% BSA. […] The EC₅₀ was determined graphically by plotting the mean flourescence intensity (MFI) versus the log of the antibody concentration using Prism graphing software (GraphPad software). Flow cytometric analyses were performed using a FACSArray flow cytometry (Becton Dickinson, San Jose, Calif.). The results are depicted in FIG. 28A.

[3] = molecular target: T3, recombinant human BTLA expressed at the …; test: FACS blocking assay: antibody pre-incubated with BTLA-CHO cells, then 0.5 ug/ml biotin HVEM Ig, streptavidin-PE detection
Experimental: The ability of BTLA Mabs to block binding of BTLA to HVEM was also determined by FACS, and is expressed as the concentration of anti-BTLA IgG to block half the maximal binding of HVEM Ig to 10⁵ BTLA CHO cells (IC₅₀). BTLA CHO cells and antibody at various concentrations were pre-incubated for 30 minutes at 4° C., and then 0.5 ug/ml biotin labeled HVEM Ig (R & D Systems BAF 356) was added to the BTLA CHO-IgG mix and incubated for another 30 minutes. Cells were washed 2× in PBS-1% BSA, and binding of biotin HVEM Ig was detected by FACS after staining the cells with streptavidin-PE (BD Parmingen 3554061). IC₅₀ values were determined graphically using the Prism software (GraphPad Software). Results are depicted in FIG. 28B and FIG. 28C.

[4] = molecular target: T2, recombinant human BTLA fusion protein; test: Biacore, BTLA fusion protein coupled to CM5 chip, antibody flowed at 267 nM
Experimental: Anti-BTLA antibodies were characterized for affinities and binding kinetics by Biacore analysis (Biacore AB, Uppsala, Sweden). Purified recombinant human BTLA fusion protein was covalently linked to a CM5 chip (carboxy methyl dextran coated chip) via primary amines, using standard amine coupling chemistry and kit provided by Biacore. Binding was measured by flowing the antibodies in HBS EP buffer (provided by Biacore AB) at a concentration of 267 nM at a flow rate of 50 μl/min. The antigen-antibody association kinetics was followed for 3 minutes and the dissociation kinetics was followed for 7 minutes. The association and dissociation curves were fit to a 1:1 Langmuir binding model using BIAevaluation software (Biacore AB). To minimize the effects of avidity in the estimation of the binding constants, only the initial segment of data corresponding to association and dissociation phases were used for fitting.

TrkB-Ig = molecular target: T4, TrkB-Ig (human, UniProt Q16620); test: ELISA, plate coated with receptor-Ig fusion, antibody at 1 ug/mL, HRP-conjugated detection antibody
T4 construct: extracellular domain
Experimental: (§1) ELISA plates were coated overnight with fusion proteins consisting of the extracellular domains of a panel of CD28 receptor family molecules fused to the Fc portion of human IgG (Table 4). The plates were washed and blocked to minimize non-specific binding. A panel of anti-BTLA antibodies and isotype control antibodies (Table 5), and positive control detection antibodies (Table 3), all diluted to 1 ug/mL, were added in duplicate to the assay plates for one hour. After extensive washing the appropriate HRP-conjugated detection antibodies were added to the plates for one hour followed by washing and development using 3, 3′, 5, 5′-tetramethylbenzidine (TMB) as substrate. Optical density measurements at 650 nm were recorded.

PD1-Ig = test: as above
Sequence of PD1-Ig (chain, as listed by the source limits assumed): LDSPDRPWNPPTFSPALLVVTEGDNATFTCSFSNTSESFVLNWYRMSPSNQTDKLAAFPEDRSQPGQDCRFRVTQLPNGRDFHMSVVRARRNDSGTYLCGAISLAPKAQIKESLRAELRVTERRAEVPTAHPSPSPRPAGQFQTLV
Experimental: as §1

CTLA4-Ig = molecular target: T5, CTLA4-Ig (human, UniProt P16410); test: as above
T5 construct: extracellular domain
T5 sequence (P16410 36-161): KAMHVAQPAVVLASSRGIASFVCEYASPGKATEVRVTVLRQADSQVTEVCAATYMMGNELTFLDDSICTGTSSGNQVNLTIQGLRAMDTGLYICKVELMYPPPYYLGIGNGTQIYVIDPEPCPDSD
Experimental: as §1

ICOS-Ig = molecular target: T1, ICOS-Ig; test: as above
Experimental: as §1

CD28-Ig = molecular target: T6, CD28-Ig (human, UniProt P10747); test: as above
T6 construct: extracellular domain
Experimental: as §1

Binder | Kd [1] [nM] | koff [1] [s⁻¹] | kon [1] [M⁻¹ s⁻¹] | EC50 [2] [nM] | IC50 [3] [nM] | Kd [4] [nM] | binding result (TrkB-Ig) | binding result (PD1-Ig) | binding result (CTLA4-Ig) | binding result (ICOS-Ig) | binding result (CD28-Ig)
10H6 human monoclonal antibody (antibody, V domains shown) VH: QVQLVESGGGVVQPGRSLRLSCAASGFTFSSYDMHWVRQAPGKGLEWVAAIWNDGSNKYYADSVKGRFTISRDNSKNTLYLQMNSLRAEDTAVYYCARDRITMVRGVITQYYGMDVWGQGTTVTVSS VL: DIQLTQSPSSLSASVGDRVTITCRVSQGISSYLNWYRQKPGKVPKLLIYSASNLQSGVPSRFSGSGSGTDFTLTISSLQPEDVATYYGQRTYNAPYTFGQGTKLEIK | 3.82 | 0.000153 | 40000 | 1.89 | 2.13 |  |  |  |  |  | 
E4H9 human monoclonal antibody (antibody, V domains shown, kappa light chain (VK A27)) VH: QVTLRESGPALVKPTQTLTLTCTFSGFSLSTSGMCVSWIRQPPGKALEWLALIDWDDVKYYSSSLKTRLTISKDTSKNQVVLTMTDMDPVDTATYYCARIRFTMFRGVYYYYYGLDVWGQGTTVTVSS VL: not shown | 0.006 | 3e-07 | 45700 | 1.55 | 1.05 | 0.13 | no binding (tested: 1 ug/mL) | no binding (tested: 1 ug/mL) | no binding (tested: 1 ug/mL) |  | 
11-E8D9 (antibody, V domains shown, also called 11E8D9.3; E8D9 human monoclonal antibody) VH: QITLKESGPTLVKPTQTLTLTCTFSGFSLSTSGVGVGWIRQPPGKALEWLALIYWDDDKRYSPSLKSRLTITKDTSKNQVVLTMTNMDPVDTATYYCAHTSITEVRGAIIYYYGMDVWGQGTTVTVSS VL: not shown |  |  |  | 0.373 | 0.34 |  | no binding (tested: 1 ug/mL) | no binding (tested: 1 ug/mL) | no binding (tested: 1 ug/mL) |  | 
11-4C9 (antibody, V domains shown, The prefix 11- appears only on the sheets; also called 4C9 human monoclonal antibody) VH: QITLKESGPTLVKPTQTLTLTCTFSGFSLSTSGVGVAWIRQPPGKALEWLALIYWDDDKRYSPSLKSRLTITKDTSKNQVVLTMSNMDPVDTATYYCAHTRIAEVRGVIYYYYGIDVWGQGTTVTVSS VL: EIVLTQSPGTLSLSPGERATLSCRASQSVSSTYLVWYQQKPGQAPRLLIYGASSRATGIPDRFSGSGSGTDFTLTISRLEPEDFAVYYCQQYGSSWTFGQGTKVEIK |  |  |  | 1.56 | 1.02 |  |  |  |  |  | 

Results, then the binder that gave them:

Kd [1] [nM] | koff [1] [s⁻¹] | kon [1] [M⁻¹ s⁻¹] | EC50 [2] [nM] | IC50 [3] [nM] | Kd [4] [nM] | binding result (TrkB-Ig) | binding result (PD1-Ig) | binding result (CTLA4-Ig) | binding result (ICOS-Ig) | binding result (CD28-Ig) | Binder
6.65 | 0.000301 | 45200 | 1.78 | 1.97 | 0.88 | no binding (tested: 1 ug/mL) | no binding (tested: 1 ug/mL) | no binding (tested: 1 ug/mL) | no binding (tested: 1 ug/mL) | no binding (tested: 1 ug/mL) | 3C2 human monoclonal antibody (antibody, IgG1, V domains shown) VH: QVQLQESGPGLVKPSETLSLTCTISGGSISNYYWNWIRQPPGKGLEWIGYIYYSTSTKYNPSLKSRVTMSVETSKNQFSLKLSSVTAADTAVYYCARVKVYSTGWFFDYWGQGTLVTVSS VL: AIQLTQSPSSLSASVGDRVTITCRASQGISSALAWYQQKPGKAPKLLIYDASSLESGVPSRFSGSGSGTDFTLTISSLQPEDFATYYCQQFNSYPLTFGGGTKVEIK
 |  |  | 3.25 | 2.73 | 0.61 | no binding (tested: 1 ug/mL) | no binding (tested: 1 ug/mL) | no binding (tested: 1 ug/mL) | no binding (tested: 1 ug/mL) | no binding (tested: 1 ug/mL) | 11E2 human monoclonal antibody (antibody, IgG1, V domains shown, kappa light chain (VK L15)) VH: EVQLVESGGGVIRPGGSLRLSCAASGFTFDDYGMSWVRQAPGKGLEWVSGINWNGGSTGYAASVKGRFTISRDNAKNSLYLQMNSLRAEDSALYYCARDYYYGPGSPNYFYYAMDVWGQGTTVTVSS VL: DIQMTQSPSSLSASVGDRVTITCRASQGISSWLAWYQQKPEKAPKSLIYAASSLQSGVPSRFSGSGSGTDFTLTISSLQPEDFATYYCQQYNSYPRTFGQGTKVEIK
5.74 | 0.000284 | 49400 | 1.34 | 1.9 | 2.88 | no binding (tested: 1 ug/mL) | no binding (tested: 1 ug/mL) | no binding (tested: 1 ug/mL) |  |  | 1B4 human monoclonal antibody (antibody, IgG1, V domains shown, human antibody purified from hybridoma, kappa light chain (VK A27)) VH: QITLKESGPTLVKPTQTLTLTCTFSGFSLNTIGVGVNWIRQPPGKALEWLALIYWDDDKRYSPSLKRRLTISKDTSKNQVVLTMTNMDPVDTATYYCAHSGITEVRGVIIHYYGMDVWGQGTTVTVSS VL: not shown
 |  |  |  |  |  | no binding (tested: 1 ug/mL) | no binding (tested: 1 ug/mL) | no binding (tested: 1 ug/mL) |  |  | 6A5 human monoclonal antibody (antibody, V domains shown, kappa light chain (VK A27)) VH: QITLKESGPTLVKPTQTLTLTCTFSGFSLSTSGVGVGWIRQPPGKALEWLALIYWDDDKRYSPSLKSRLTITKDTSKNQVVLTMANMDPVDTATYYCAHIRITEVRGVIISYYGMDVWGQGTTVTVSS VL: not shown
